Data reported in the RNAGym collection of RNA variant scans (doi:10.7554/elife.80360).

B1: HDV Ribozyme (parent)
chain: GGCCGGCAUGGUCCCAGCCUCCUCGCUGGCGCCGGCUGGGCAACAUUCCGAGGGGACCGUCCCCUCGGUAAUGGCGAAUGGGACCCA

Variants of: B1
Assay: self-cleavage, relative activity (ratio to wild type); higher = more cleavage; co-transcriptional

Going from C7A G67A to C7A G67C, the self-cleavage falls from 0.315 to 0.302.

Compared with A8G C61G, G6U C66G is lower in self-cleavage: 1.04 for the first, 0.54 for the second.

First: G6U C66A
Second: C7U G68U
The self-cleavage of the first is lower: 0.443 for the first, 0.764 for the second.

Going from C7G C75G to G6U A77C, the self-cleavage rises from 0.145 to 0.332.

Going from A8U A16U to G6U G80U, the self-cleavage falls from 0.962 to 0.0838.

Going from A8G C26G to C7A C15G, the self-cleavage falls from 1.36 to 0.123.

Going from G6C U20A to C7A U65G, the self-cleavage rises from 0 to 0.246.

Going from C7A U65A to C7U C44U, the self-cleavage rises from 0.356 to 0.374.

First: C7U C44G
Second: A8C C41A
The self-cleavage of the first is lower: 0.464 for the first, 0.798 for the second.

Compared with A8C C41G, A8C C15A is lower in self-cleavage: 0.457 for the first, 0.199 for the second.

Going from A8G C18A to A8G C18U, the self-cleavage rises from 0.0875 to 0.297.

Compared with G6C U12A, C7G A71C is higher in self-cleavage: 0 for the first, 0.222 for the second.

First: C7U G82C
Second: A8G C21A
The self-cleavage of the first is higher: 0.227 for the first, 0.0415 for the second.

Going from A8G A77C to C7U G34A, the self-cleavage falls from 0.277 to 0.0302.

Compared with C7G C19A, C7G C44A is lower in self-cleavage: 0.0831 for the first, 0 for the second.

First: A8C A51U
Second: C7U G10A
The self-cleavage of the first is higher: 0.831 for the first, 0.425 for the second.

Compared with C7U G10C, G6U A78G is lower in self-cleavage: 0.266 for the first, 0.229 for the second.

Compared with C7G C33A, A8C C21G is lower in self-cleavage: 0.196 for the first, 0.0594 for the second.

First: C7A U9A
Second: A8G C19U
The self-cleavage of the first is higher: 0.431 for the first, 0.104 for the second.

First: G6U A42U
Second: C7U U37G
The self-cleavage of the first is lower: 0.095 for the first, 0.19 for the second.

Going from C7A C33U to G6U G25U, the self-cleavage falls from 0.148 to 0.117.

Going from C7A U27C to G6U G17U, the self-cleavage falls from 0.287 to 0.0519.

Going from C7G C14G to G6U U79G, the self-cleavage rises from 0 to 0.185.

First: A8G G25U
Second: A8C C61G
The self-cleavage of the first is lower: 0.35 for the first, 0.772 for the second.

Compared with A8C A45G, A8G A51G is higher in self-cleavage: 0.615 for the first, 1.16 for the second.

First: C7G A56U
Second: C7A C57G
The self-cleavage of the first is lower: 0.475 for the first, 0.571 for the second.

First: A8C U20A
Second: C7A C14A
The self-cleavage of the first is lower: 0.0615 for the first, 0.123 for the second.

C7G G53A and C7G G53U are the same in self-cleavage: 0.26 for the first, 0.26 for the second.

First: A8C G35A
Second: G6U C86A
The self-cleavage of the first is lower: 0.142 for the first, 0.574 for the second.

Going from C7A A87U to C7A A42C, the self-cleavage falls from 0.505 to 0.19.

Compared with C7U A42U, C7U A42C is lower in self-cleavage: 0.196 for the first, 0.18 for the second.

Compared with A8G U65G, C7G U72C is lower in self-cleavage: 0.906 for the first, 0 for the second.

Compared with G6U U60C, A8C C49A is higher in self-cleavage: 0.525 for the first, 0.9 for the second.

Compared with G6U A56G, A8G U37G is lower in self-cleavage: 0.623 for the first, 0 for the second.

Going from G6U U72G to G6U U72A, the self-cleavage falls from 0.133 to 0.0665.

First: A8C G11U
Second: A8C G59U
The self-cleavage of the first is lower: 0.17 for the first, 0.804 for the second.

Going from C7G U69C to C7G U69G, the self-cleavage rises from 0.277 to 0.293.

First: C7A G81U
Second: A8G C36A
The self-cleavage of the first is higher: 0.116 for the first, 0.0386 for the second.

First: A8C G53U
Second: A8C G53A
The self-cleavage of the first is lower: 0.831 for the first, 0.846 for the second.

First: A8C C66A
Second: C7G G55A
The self-cleavage of the first is higher: 0.831 for the first, 0.302 for the second.

Going from A8C U27A to G6C U27G, the self-cleavage falls from 0.867 to 0.0791.

Going from G6C U27A to C7G C48U, the self-cleavage falls from 0.332 to 0.262.

First: C7A U69G
Second: A8G G73C
The self-cleavage of the first is higher: 0.751 for the first, 0.437 for the second.

Going from C7A A56U to A8G G68C, the self-cleavage rises from 0.617 to 1.06.

Compared with A8C U46A, A8C C86G is higher in self-cleavage: 0.217 for the first, 1.02 for the second.

First: G6C U79G
Second: A8G G10C
The self-cleavage of the first is lower: 0 for the first, 0.665 for the second.

Compared with C7U U60A, A8C G17A is higher in self-cleavage: 0.682 for the first, 0.831 for the second.

Compared with C7G C32A, C7U C84A is higher in self-cleavage: 0 for the first, 1.14 for the second.

Compared with C7U C84G, A8C C24G is lower in self-cleavage: 0.527 for the first, 0 for the second.

First: A8G G50C
Second: A8G G50A
The self-cleavage of the first is higher: 1.17 for the first, 1.03 for the second.

First: C7G A8G
Second: C7G A8C
The self-cleavage of the first is higher: 0.519 for the first, 0 for the second.

Compared with C7U C61G, G6U C32G is higher in self-cleavage: 0.743 for the first, 0.798 for the second.

Going from C7U C66U to C7A C49U, the self-cleavage falls from 0.665 to 0.582.

First: C7A G11U
Second: A8C G40U
The self-cleavage of the first is lower: 0.095 for the first, 0.345 for the second.

Compared with A8C G40C, G6U A8C is higher in self-cleavage: 0.242 for the first, 0.447 for the second.

Compared with A8G G80A, C7U C13U is higher in self-cleavage: 0.148 for the first, 0.332 for the second.

Going from C7U C13G to C7U A8G, the self-cleavage rises from 0 to 0.582.

Compared with C7U A8U, G6U G52C is lower in self-cleavage: 0.831 for the first, 0.554 for the second.

Compared with G6U G52U, C7A C18A is lower in self-cleavage: 0.397 for the first, 0.0852 for the second.

First: C7G G73U
Second: C7G G17C
The self-cleavage of the first is higher: 0.0831 for the first, 0 for the second.

Going from C7A C22U to C7A C22A, the self-cleavage rises from 0 to 0.0941.

Going from A8G G81U to A8G G81C, the self-cleavage falls from 0.256 to 0.115.

Compared with C7U G59A, C7A G55A is lower in self-cleavage: 0.8 for the first, 0.627 for the second.

Compared with A8C U47G, A8G U47G is lower in self-cleavage: 0.795 for the first, 0.782 for the second.

First: A8G U47A
Second: A8G U47C
The self-cleavage of the first is lower: 1.05 for the first, 1.07 for the second.

First: C7G C21U
Second: A8G C57A
The self-cleavage of the first is lower: 0.0594 for the first, 0.779 for the second.

First: A8G U79G
Second: C7G A45G
The self-cleavage of the first is higher: 0.332 for the first, 0.217 for the second.

Compared with C7G U12G, C7G C86A is higher in self-cleavage: 0 for the first, 0.426 for the second.

First: C7G G50C
Second: A8G C14G
The self-cleavage of the first is higher: 0.138 for the first, 0 for the second.

Compared with A8C G34A, C7G C62G is higher in self-cleavage: 0.0475 for the first, 0.111 for the second.

Going from C7G C62A to C7U U46G, the self-cleavage rises from 0 to 0.68.

First: C7U C22U
Second: A8C A77C
The self-cleavage of the first is higher: 0.394 for the first, 0.317 for the second.

First: A8C A77U
Second: A8G C44U
The self-cleavage of the first is lower: 0.356 for the first, 0.475 for the second.

Going from A8G C44A to A8G C44G, the self-cleavage falls from 0.665 to 0.499.

Compared with G6U C61G, C7U C62A is higher in self-cleavage: 0.707 for the first, 0.764 for the second.

First: G6U A83U
Second: G6U A83G
The self-cleavage of the first is higher: 0.256 for the first, 0.17 for the second.

Going from G6U U47G to A8C A70G, the self-cleavage rises from 0.554 to 0.782.

Compared with A8C A70U, C7G G35A is lower in self-cleavage: 0.623 for the first, 0.156 for the second.

First: C7G G35C
Second: C7A A43U
The self-cleavage of the first is higher: 0.237 for the first, 0.0386 for the second.

Compared with C7G G67C, C7U G74A is higher in self-cleavage: 0.0573 for the first, 0.204 for the second.

First: G6C G76C
Second: C7A G28A
The self-cleavage of the first is higher: 0.364 for the first, 0.123 for the second.

Going from C7A G52A to A8G G67C, the self-cleavage rises from 0.629 to 0.665.

First: C7A G59C
Second: C7U U65A
The self-cleavage of the first is higher: 0.578 for the first, 0.475 for the second.

Work on C7U C49A yielded a self-cleavage of 0.974.
